Test results taken from publication PMC6021441, “Structural basis of the correct subunit assembly, aggregation, and intracellular degradation of nylon hydrolase” (Scientific Reports, 2018).
Substitutions are numbered along the chain they refer to.

What was measured:
[1] = target: T1, NylCp2-G^122Y^130A^36Q^263 alpha subunit (D122G/H130Y/D36A/E263Q) (Arthrobacter, UniProt Q79F77 1-266, D122G | H130Y | D36A | E263Q); test: crystal structure; sitting-drop vapor diffusion, ammonium sulfate, 0.1 M HEPES pH 7.5, 0.2 M NaCl, 25% glycerol; space group C222_(1), two molecules (A/B dimer) in the asymmetric unit, tetramer by the crystallographic two-fold axis; details: both partners purified
T1 construct: NylCp2 alpha subunit with four substitutions; also called α subunit of NylCp2-G^122Y^130A^36Q^263; source: E. coli JM109, purified with the beta subunit as the active enzyme
T1 sequence (looked up): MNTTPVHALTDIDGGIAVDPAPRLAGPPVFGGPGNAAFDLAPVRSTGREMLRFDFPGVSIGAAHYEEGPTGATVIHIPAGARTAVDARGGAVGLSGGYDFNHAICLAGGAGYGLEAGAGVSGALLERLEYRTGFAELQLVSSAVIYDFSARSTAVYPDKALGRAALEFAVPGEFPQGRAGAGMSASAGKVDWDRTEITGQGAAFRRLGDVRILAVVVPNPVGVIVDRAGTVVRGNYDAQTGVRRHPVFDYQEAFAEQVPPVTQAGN

[2] = target: T2, NylCp2 alpha subunit (27 kDa), wild type (Arthrobacter, UniProt Q79F77 1-266); test: as above; details: both partners purified
T2 construct: NylCp2, alpha subunit made by autocleavage of the 355-residue precursor between Asn266 and Thr267; also called α subunit; source: E. coli JM109, purified with the beta subunit as the active enzyme
T2 sequence (looked up): T1 sequence (looked up) with A36D, G122D, Y130H, Q263E

B1: NylCp2 beta subunit (9 kDa) (domain or fragment, Arthrobacter, UniProt Q79F77 267-355, looked up)
chain: TTISAIVTNVRMSPVELNQFAKQVHSSMHRGIQPFHTDMDGDTLFAVTTDEIDLPTTPGSSRGRLSVNATALGAIASEVMWDAVLEAGK
notes: NylCp2, beta subunit made by autocleavage of the 355-residue precursor between Asn266 and Thr267; the same in the wild type and in the mutants crystallised here (all their substitutions lie in the alpha subunit); also called β subunit; source: E. coli JM109, purified with the alpha subunit as the active enzyme
binding result [1]: binds | binding result [2]: binds
